Key:
[1] = target: T1, Anti-CD28 Fab (SEQ ID NOs: 696, 697); test: phage binding ELISA; Fab-coated wells pre-incubated with CD28 antigen as competitor, phage detected with anti-M13-HRP
T1 construct: In the phage ELISA the Fab was biotinylated and captured on neutravidin coated plates
T1 sequence (VH, as listed by the source, chain 1 of 2): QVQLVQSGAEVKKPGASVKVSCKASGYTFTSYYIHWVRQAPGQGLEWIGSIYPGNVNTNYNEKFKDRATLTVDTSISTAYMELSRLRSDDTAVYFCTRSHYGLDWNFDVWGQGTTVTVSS
T1 sequence (VL, as listed by the source, chain 2 of 2): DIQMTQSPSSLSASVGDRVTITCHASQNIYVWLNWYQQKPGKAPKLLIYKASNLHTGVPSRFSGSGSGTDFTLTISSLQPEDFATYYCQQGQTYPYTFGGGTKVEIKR
Experimental: (§1) Clonal phage were harvested as crude supematants and screened via standard ELISAs. […] Prior to the addition of clonal phage, wells were incubated with blocking buffer and CD28 antigen or blocking buffer alone. Without washing or aspirating, clonal phage supematants were then added to the wells and incubated for a short time. Wells were then washed followed by detection of bound phage using a horse radish conjugated anti-M13 antibody. Clonal phage of interest were then sent for sequence analysis.

[2] = target: T1, Anti-CD28 Fab (SEQ ID NOs: 696, 697); test: phage binding ELISA; biotinylated anti-CD28 Fab on neutravidin plate, clonal phage detected with anti-M13-HRP;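 further: crude clonal phage supernatants added briefly to wells preincubated in blocking buffer with or without CD28 antigen, then washed before detection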
Experimental: as §1

[3] = target: T2, Anti-PSMA Fab (SEQ ID NOs: 19, 20); test: phage binding ELISA on PSMA Fab coated plates; competitor: PSMA antigen
T2 construct: Biotinylated Fab captured on neutravidin coated plates in the phage ELISA; also called 006 PSMA Fab
Experimental: (§2) Clonal phage were harvested as crude supernatants and screened via standard ELISAs. […] Prior to the addition of clonal phage. wells were incubated with blocking buffer and PSMA antigen or blocking buffer alone. Without washing or aspirating, clonal phage supernatants were then added to the wells and incubated for a short time. Wells were then washed followed by detection of bound phage using a horse radish conjugated anti-M13 antibody.

[4] = target: T2, Anti-PSMA Fab (SEQ ID NOs: 19, 20); test: phage binding ELISA; clonal phage on biotinylated PSMA Fab captured on neutravidin plates, anti-M13 HRP detection
Experimental: as §2

[5] = target: Anti-CD28 Fab (SEQ ID NOs: 696, 697); test: phage binding ELISA; Fab-coated wells pre-incubated with saturating CD28 antigen as competitor, anti-M13 HRP detection
Target sequence in this assay (VH, as listed by the source, chain 1 of 2): as the sequence (VH, as listed by the source, chain 1 of 2) above
Target sequence in this assay (VL, as listed by the source, chain 2 of 2): as the sequence (VL, as listed by the source, chain 2 of 2) above
Experimental: (§3) Clonal phage were harvested as crude supematants and screened via standard ELISAs. […] Prior to the addition of clonal phage, wells were incubated with blocking buffer and CD28 antigen or blocking buffer alone. Without washing or aspirating, clonal phage supematants were then added to the wells and incubated for a short time. Wells were then washed followed by detection of bound phage using a horse radish conjugated anti-M13 antibody.

[6] = target: Anti-CD28 Fab (SEQ ID NOs: 696, 697); test: phage binding ELISA; biotinylated anti-CD28 Fab on neutravidin plate, clonal phage supernatant, anti-M13 HRP detection;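 further: wells pretreated with blocking buffer, either plus or minus CD28 antigen, then given crude phage supernatant briefly without washing in between, then washed before anti-M13 HRP readout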
Target sequence in this assay (VH, as listed by the source, chain 1 of 2): as the sequence (VH, as listed by the source, chain 1 of 2) above
Target sequence in this assay (VL, as listed by the source, chain 2 of 2): as the sequence (VL, as listed by the source, chain 2 of 2) above
Experimental: as §3

[7] = target: T3, Anti-CD28 Fab (SEQ ID NOs: 696, 697); test: phage binding ELISA on captured anti-CD28 Fab; competitor: CD28 antigen pre-incubated in the well;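 further: clonal phage supernatants added briefly to wells preblocked with or without CD28, bound phage detected through an HRP-linked anti-M13 antibody, wells with blocking buffer alone as comparison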
T3 construct: Biotinylated and captured on neutravidin coated plates in the phage ELISA
T3 sequence (VH, as listed by the source, chain 1 of 2): as the sequence (VH, as listed by the source, chain 1 of 2) above
T3 sequence (VL, as listed by the source, chain 2 of 2): as the sequence (VL, as listed by the source, chain 2 of 2) above
Experimental: as §1

[8] = target: T3, Anti-CD28 Fab (SEQ ID NOs: 696, 697); test: phage binding ELISA; biotinylated anti-CD28 Fab on neutravidin plate, bound phage detected with anti-M13-HRP;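 further: clonal phage tested as crude supernatants, given a short incubation in the Fab-captured wells before bound phage were read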
Experimental: as §1

TCAAGATWVWPTCF (Peptide-92 library clone) [Phage-1675]
Anti-CD28 Fab signal in the presence of CD28 [1]: 0.07 | Anti-CD28 Fab (SEQ ID NOs: 696, 697) signal [2]: 0.92

HCKFHDYHSWYVCY [Phage-1762]
Anti-PSMA Fab signal in the presence of PSMA [3]: 0.0994 | Anti-PSMA Fab (SEQ ID NOs: 19, 20) signal [4]: 2.31

WCSAVFSYQWPPCF (Peptide-92 library clone) [Phage-1689]
Anti-CD28 Fab signal in the presence of CD28 [1]: 0.06 | Anti-CD28 Fab (SEQ ID NOs: 696, 697) signal [2]: 0.78

SCSAGASLQLSQCF (also called Peptide-92 library clone) [Phage-1576]
Anti-CD28 Fab signal in the presence of CD28 [5]: 0.05 | Anti-CD28 Fab (SEQ ID NOs: 696, 697) signal [6]: 1.41

B1: Phage-1585 (peptide)
peptide: TCAAGASWNWPACE
notes: Read from the row with '-' = Peptide-92 residue: TCAAGASWNWPACE; also called Peptide-92 library clone
Anti-CD28 Fab signal in the presence of CD28 [5]: 0.07 | Anti-CD28 Fab (SEQ ID NOs: 696, 697) signal [6]: 1.41

TCAAGAMWNWPQCY (tested as crude phage supernatant) [Phage-1539]
Anti-CD28 Fab signal in the presence of CD28 [7]: 0.07 | Anti-CD28 Fab (SEQ ID NOs: 696, 697) signal [8]: 1.54

TCSAGAMYNWPECF (Peptide-92 library clone) [Phage-1676]
Anti-CD28 Fab signal in the presence of CD28 [1]: 0.08 | Anti-CD28 Fab (SEQ ID NOs: 696, 697) signal [2]: 0.92

TCAAGATWDWPLCF (tested as crude phage supernatant) [Phage-1546]
Anti-CD28 Fab signal in the presence of CD28 [7]: 0.06 | Anti-CD28 Fab (SEQ ID NOs: 696, 697) signal [8]: 1.51

LEKLCIPAWMCEWL [Phage-1765]
Anti-PSMA Fab signal in the presence of PSMA [3]: 0.184 | Anti-PSMA Fab (SEQ ID NOs: 19, 20) signal [4]: 2.4

SCSAGAMWLWPECF (Peptide-92 library clone) [Phage-1688]
Anti-CD28 Fab signal in the presence of CD28 [1]: 0.06 | Anti-CD28 Fab (SEQ ID NOs: 696, 697) signal [2]: 0.8

HCEFHDYQSCDVLY [Phage-1761]
Anti-PSMA Fab signal in the presence of PSMA [3]: 0.126 | Anti-PSMA Fab (SEQ ID NOs: 19, 20) signal [4]: 1.89

QCAAGFSYTWPECY (Peptide-92 library clone) [Phage-1678]
Anti-CD28 Fab signal in the presence of CD28 [1]: 0.11 | Anti-CD28 Fab (SEQ ID NOs: 696, 697) signal [2]: 0.9

TCAAGAKYVWPLCF (Peptide-92 library clone) [Phage-1682]
Anti-CD28 Fab signal in the presence of CD28 [1]: 0.12 | Anti-CD28 Fab (SEQ ID NOs: 696, 697) signal [2]: 0.85

TCAAGAAWEWPICF (tested as crude phage supernatant) [Phage-1538]
Anti-CD28 Fab signal in the presence of CD28 [7]: 0.06 | Anti-CD28 Fab (SEQ ID NOs: 696, 697) signal [8]: 1.54

RCSFRFITLAEACV (also called Peptide-92 library clone) [Phage-1577]
Anti-CD28 Fab signal in the presence of CD28 [5]: 0.08 | Anti-CD28 Fab (SEQ ID NOs: 696, 697) signal [6]: 1.41

LCSAGAMWQWPTCL (tested as crude phage supernatant) [Phage-1544]
Anti-CD28 Fab signal in the presence of CD28 [7]: 0.05 | Anti-CD28 Fab (SEQ ID NOs: 696, 697) signal [8]: 1.51

VLKWCRPAWMCEVL [Phage-1766]
Anti-PSMA Fab signal in the presence of PSMA [3]: 0.219 | Anti-PSMA Fab (SEQ ID NOs: 19, 20) signal [4]: 2.38

MCAAGAAWAWPLCL (also called Peptide-92 library clone) [Phage-1588]
Anti-CD28 Fab signal in the presence of CD28 [5]: 0.07 | Anti-CD28 Fab (SEQ ID NOs: 696, 697) signal [6]: 1.4

LCAEGADYPWPMCL (tested as crude phage supernatant) [Phage-1545]
Anti-CD28 Fab signal in the presence of CD28 [7]: 0.08 | Anti-CD28 Fab (SEQ ID NOs: 696, 697) signal [8]: 1.51

TCSAGAHYPWPICL (also called Peptide-92 library clone) [Phage-1578]
Anti-CD28 Fab signal in the presence of CD28 [5]: 0.08 | Anti-CD28 Fab (SEQ ID NOs: 696, 697) signal [6]: 1.41

SCSAGAMYPWPMCL (tested as crude phage supernatant) [Phage-1540]
Anti-CD28 Fab signal in the presence of CD28 [7]: 0.06 | Anti-CD28 Fab (SEQ ID NOs: 696, 697) signal [8]: 1.53

GCAAGASYPWPACL (also called Peptide-92 library clone) [Phage-1582]
Anti-CD28 Fab signal in the presence of CD28 [5]: 0.06 | Anti-CD28 Fab (SEQ ID NOs: 696, 697) signal [6]: 1.41

RCKAGVPYKWPMCL (Peptide-92 library clone) [Phage-1680]
Anti-CD28 Fab signal in the presence of CD28 [1]: 0.06 | Anti-CD28 Fab (SEQ ID NOs: 696, 697) signal [2]: 0.87

LCEWWTSHVDAWCA [Phage-1763]
Anti-PSMA Fab signal in the presence of PSMA [3]: 0.184 | Anti-PSMA Fab (SEQ ID NOs: 19, 20) signal [4]: 0.575

LCQWYPKFHWMDCD (also called Peptide-210) [Phage-1760]
Anti-PSMA Fab signal in the presence of PSMA [3]: 0.0695 | Anti-PSMA Fab (SEQ ID NOs: 19, 20) signal [4]: 0.611

TCAAGAQFAWPLCL (also called Peptide-92 library clone) [Phage-1579]
Anti-CD28 Fab signal in the presence of CD28 [5]: 0.07 | Anti-CD28 Fab (SEQ ID NOs: 696, 697) signal [6]: 1.41

TCSAGATYSWPACL (also called Peptide-92 library clone) [Phage-1584]
Anti-CD28 Fab signal in the presence of CD28 [5]: 0.06 | Anti-CD28 Fab (SEQ ID NOs: 696, 697) signal [6]: 1.41

TCAAGASYPWPLCV (also called Peptide-92 library clone) [Phage-1589]
Anti-CD28 Fab signal in the presence of CD28 [5]: 0.06 | Anti-CD28 Fab (SEQ ID NOs: 696, 697) signal [6]: 1.4

TCAAGATYEWPSCI (Peptide-92 library clone) [Phage-1681]
Anti-CD28 Fab signal in the presence of CD28 [1]: 0.09 | Anti-CD28 Fab (SEQ ID NOs: 696, 697) signal [2]: 0.86

WEKLCTPAWMCVGF [Phage-1764]
Anti-PSMA Fab signal in the presence of PSMA [3]: 0.105 | Anti-PSMA Fab (SEQ ID NOs: 19, 20) signal [4]: 2.44

PCAAGAMWPWPVCL (also called Peptide-92 library clone) [Phage-1583]
Anti-CD28 Fab signal in the presence of CD28 [5]: 0.06 | Anti-CD28 Fab (SEQ ID NOs: 696, 697) signal [6]: 1.41

TCSAGAMYSWPLCI (Peptide-92 library clone) [Phage-1677]
Anti-CD28 Fab signal in the presence of CD28 [1]: 0.08 | Anti-CD28 Fab (SEQ ID NOs: 696, 697) signal [2]: 0.91

WCAAFFHYPWPQCF (Peptide-92 library clone) [Phage-1679]
Anti-CD28 Fab signal in the presence of CD28 [1]: 0.05 | Anti-CD28 Fab (SEQ ID NOs: 696, 697) signal [2]: 0.87

LCSAGFLFQWSTCL (also called Peptide-92 library clone) [Phage-1580]
Anti-CD28 Fab signal in the presence of CD28 [5]: 0.06 | Anti-CD28 Fab (SEQ ID NOs: 696, 697) signal [6]: 1.41

ECGWEPGQHWRVCF (Peptide-92 library clone) [Phage-1685]
Anti-CD28 Fab signal in the presence of CD28 [1]: 0.06 | Anti-CD28 Fab (SEQ ID NOs: 696, 697) signal [2]: 0.82

TCAAGASWEWPLCF (tested as crude phage supernatant) [Phage-1541]
Anti-CD28 Fab signal in the presence of CD28 [7]: 0.08 | Anti-CD28 Fab (SEQ ID NOs: 696, 697) signal [8]: 1.52

LCAAGAHYSWPACF (also called Peptide-92 library clone) [Phage-1586]
Anti-CD28 Fab signal in the presence of CD28 [5]: 0.09 | Anti-CD28 Fab (SEQ ID NOs: 696, 697) signal [6]: 1.41

RCAAGFHYSWPNCF (also called Peptide-92 library clone) [Phage-1581]
Anti-CD28 Fab signal in the presence of CD28 [5]: 0.06 | Anti-CD28 Fab (SEQ ID NOs: 696, 697) signal [6]: 1.41

LCAAGFMYEWPLCF (also called Peptide-92 library clone) [Phage-1590]
Anti-CD28 Fab signal in the presence of CD28 [5]: 0.06 | Anti-CD28 Fab (SEQ ID NOs: 696, 697) signal [6]: 1.4

LCEAGFNYDWPRCL (Peptide-92 library clone) [Phage-1683]
Anti-CD28 Fab signal in the presence of CD28 [1]: 0.07 | Anti-CD28 Fab (SEQ ID NOs: 696, 697) signal [2]: 0.85

TCEAVFIYSWPFCL (tested as crude phage supernatant) [Phage-1543]
Anti-CD28 Fab signal in the presence of CD28 [7]: 0.08 | Anti-CD28 Fab (SEQ ID NOs: 696, 697) signal [8]: 1.52

TCSAGATYVWPDCF (tested as crude phage supernatant) [Phage-1542]
Anti-CD28 Fab signal in the presence of CD28 [7]: 0.09 | Anti-CD28 Fab (SEQ ID NOs: 696, 697) signal [8]: 1.52

SCAAGATYEWPTCL (Peptide-92 library clone) [Phage-1686]
Anti-CD28 Fab signal in the presence of CD28 [1]: 0.07 | Anti-CD28 Fab (SEQ ID NOs: 696, 697) signal [2]: 0.81

PCSAGVTYAWLYCV (also called Peptide-92 library clone) [Phage-1587]
Anti-CD28 Fab signal in the presence of CD28 [5]: 0.06 | Anti-CD28 Fab (SEQ ID NOs: 696, 697) signal [6]: 1.41

SCAAGATYKWPACF (Peptide-92 library clone) [Phage-1687]
Anti-CD28 Fab signal in the presence of CD28 [1]: 0.06 | Anti-CD28 Fab (SEQ ID NOs: 696, 697) signal [2]: 0.8

TCAAGASWDWPFCF (Peptide-92 library clone) [Phage-1684]
Anti-CD28 Fab signal in the presence of CD28 [1]: 0.08 | Anti-CD28 Fab (SEQ ID NOs: 696, 697) signal [2]: 0.82
